{
  "source": "paper PMC12531337",
  "about": "(Nature Communications, 2023)",
  "note": "Several values for one entry are separate records, joined by “and”; a condition that tells them apart may be missing. Identical values can stand only once.",
  "data": [
    {"target": "the molecule itself", "test": "AUC", "values": [
      {"binder": "mCherry fusion hnRNPA2 LC domain F291S mutant (domain or fragment, UniProt P22626-2 181-341, looked up) MQEVQSSRSGRGGNFGFGDSRGGGGNFGPGPGSNFRGGSDGYGSGRGFGDGYNGYGGGPGGGNFGGSPGYGGGRGGYGGGGPGYGNQGGGYGGGYDNYGGGNYGSGNYNDSGNYNQQPSNYGPMKSGNFGGSRNMGGPYGGGNYGPGGSGGSGGYGGRSRY", "stoichiometry N": "2 and 3"}
    ]},
    {"target": "mCherry fusion hnRNPA2 LC domain (UniProt P22626-2 181-341)", "test": "hydrogel binding assay", "values": [
      {"binder": "YQCDKCGKRFSHSGSYSQHMNH (domain or fragment, UniProt O60315 1055-1076, looked up)", "note": "[GFP:ZEB2-ZnF8]", "binding result": "binds"},
      {"binder": "GFP:ZEB2-ZnF6-7 (domain or fragment, UniProt O60315 999-1049, looked up) YACDLCDKTFQKSSSLLRHKYEHTGKRPHQCQICKKAFKHKHHLIEHSRLH", "binding result": "binds"},
      {"binder": "GFP:ZEB1-ZnF5-7 (domain or fragment, UniProt P37275 904-981, looked up) YACDLCDKIFQKSSSLLRHKYEHTGKRPHECGICKKAFKHKHHLIEHMRLHSGEKPYQCDKCGKRFSHSGSYSQHMNH", "binding result": "binds"},
      {"binder": "GFP fusion ZEB2 ZnF6-8 (domain or fragment, UniProt O60315 999-1076, looked up) YACDLCDKTFQKSSSLLRHKYEHTGKRPHQCQICKKAFKHKHHLIEHSRLHSGEKPYQCDKCGKRFSHSGSYSQHMNH", "binding result": "binds"},
      {"binder": "GFP:ZEB2-ZnF1-4 (domain or fragment, UniProt O60315 211-334, looked up) LTCPYCDRGYKRLTSLKEHIKYRHEKNEENFSCPLCSYTFAYRTQLERHMVTHKPGTDQHQMLTQGAGNRKFKCTECGKAFKYKHHLKEHLRIHSGEKPYECPNCKKRFSHSGSYSSHISSKKC", "binding result": "binds"},
      {"binder": "GFP:ZNF512B ZnF3-5 (domain or fragment, UniProt Q96KM6 540-653, looked up) LKCQHCRKQFKSKAGLNYHTMAEHSAKPSDAEASEGGEQEERERLRKVLKQMGRLRCPQEGCGAAFSSLMGYQYHQRRCGKPPCEVDSPSFPCTHCGKTYRSKAGHDYHVRSEH", "binding result": "binds"},
      {"binder": "HQCQICKKAFKHKHHLIEHSRLHSGEKPYQCDKCGKRFSHSGSYSQHMNH (domain or fragment, UniProt O60315 1027-1076, looked up)", "note": "[GFP:ZEB2-ZnF7-8]", "binding result": "binds"},
      {"binder": "YACDLCDKTFQKSSSLLRHKYEH (domain or fragment, UniProt O60315 999-1021, looked up)", "note": "[GFP:ZEB2-ZnF6]", "binding result": "binds"},
      {"binder": "GFP-fused ZnFs of KLF4 (domain or fragment) not shown", "binding result": "binds"},
      {"binder": "HQCQICKKAFKHKHHLIEHSRLH (domain or fragment, UniProt O60315 1027-1049, looked up)", "note": "[GFP:ZEB2-ZnF7]", "binding result": "binds"},
      {"binder": "FSCQFCKESFPGPIPLHQHERYLCK (domain or fragment, UniProt O60315 581-605, looked up)", "note": "[GFP:ZEB2-ZnF5]", "binding result": "binds"}
    ]},
    {"target": "T1, mCherry fusion FUS LC domain (UniProt P35637 2-214)", "T1 sequence (looked up)": "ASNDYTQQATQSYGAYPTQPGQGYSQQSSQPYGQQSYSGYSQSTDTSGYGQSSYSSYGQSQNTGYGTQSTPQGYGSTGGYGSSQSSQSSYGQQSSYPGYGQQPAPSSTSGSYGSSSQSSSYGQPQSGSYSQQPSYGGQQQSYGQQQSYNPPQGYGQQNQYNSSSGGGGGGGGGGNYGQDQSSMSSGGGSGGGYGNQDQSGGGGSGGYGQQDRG", "test": "hydrogel binding assay", "values": [
      {"binder": "GFP fusion ZEB2 ZnF6-8 (domain or fragment, UniProt O60315 999-1076, looked up) YACDLCDKTFQKSSSLLRHKYEHTGKRPHQCQICKKAFKHKHHLIEHSRLHSGEKPYQCDKCGKRFSHSGSYSQHMNH", "binding result": "binds"}
    ]},
    {"target": "mCherry fusion TDP43 LC domain (UniProt Q13148 262-414)", "sequence (Q13148 262-414)": "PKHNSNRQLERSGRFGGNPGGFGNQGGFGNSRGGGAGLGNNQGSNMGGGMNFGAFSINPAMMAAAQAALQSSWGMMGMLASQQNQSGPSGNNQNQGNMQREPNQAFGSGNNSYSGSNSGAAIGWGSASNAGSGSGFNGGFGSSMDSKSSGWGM", "test": "hydrogel binding assay", "values": [
      {"binder": "GFP fusion ZEB2 ZnF6-8 (domain or fragment, UniProt O60315 999-1076, looked up) YACDLCDKTFQKSSSLLRHKYEHTGKRPHQCQICKKAFKHKHHLIEHSRLHSGEKPYQCDKCGKRFSHSGSYSQHMNH", "binding result": "binds"}
    ]}
  ]
}
